Patent publication EP1073891B1, “METHOD OF PREDICTING RECEPTOR MODULATING ACTIVITY” (Duke University, priority 1998, dated 1999)

Assays:
[1] = target: T1, ERα (Homo sapiens, UniProt P03372); test: Phage ELISA / fingerprint on ER immobilized on biotinylated ERE (Examples 2.3-2.5); assay type: binding; set-up: purchased PanVera Corporation, Madison, WI; details: for binding to ERα in the in vitro phage display system: presence or absence of estradiol / 4-OH-tamoxifen
T1 sequence (P03372 1-595): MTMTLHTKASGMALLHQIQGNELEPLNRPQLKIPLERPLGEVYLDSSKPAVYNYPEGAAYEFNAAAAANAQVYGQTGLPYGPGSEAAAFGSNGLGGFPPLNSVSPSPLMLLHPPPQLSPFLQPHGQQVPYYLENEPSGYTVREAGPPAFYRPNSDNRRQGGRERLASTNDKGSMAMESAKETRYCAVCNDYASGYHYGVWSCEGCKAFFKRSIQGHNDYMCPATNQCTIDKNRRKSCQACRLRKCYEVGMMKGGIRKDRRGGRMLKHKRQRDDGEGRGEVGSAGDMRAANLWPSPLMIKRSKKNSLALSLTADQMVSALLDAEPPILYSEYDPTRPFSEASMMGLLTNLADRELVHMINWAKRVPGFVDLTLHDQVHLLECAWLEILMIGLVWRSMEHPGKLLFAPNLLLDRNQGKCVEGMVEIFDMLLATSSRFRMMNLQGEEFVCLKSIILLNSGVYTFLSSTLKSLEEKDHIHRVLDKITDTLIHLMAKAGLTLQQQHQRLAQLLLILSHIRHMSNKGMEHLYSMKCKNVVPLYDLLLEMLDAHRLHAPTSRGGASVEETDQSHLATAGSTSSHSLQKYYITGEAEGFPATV

[2] = target: T2, ER (Homo sapiens, UniProt P03372); test: Disruption of tamoxifen activated ER transcription on several promoters (1x-ERE-Luc, 3X-ERE-Luc, TK-ERE-Luc, C3-Luc) (Example 4.5); assay type: cell-based; details: tamoxifen (10nM), TK-ERE-Luc and C3-Luc
T2 construct: expressed in transfected cells; host or cells: HepG2
T2 sequence (P03372 1-595): T1 sequence (P03372 1-595)

Sequence	binding to ERα in the in vitro phage display system [1]	block of tamoxifen activated transcription on distinct promoters [2]	binding of the probe to ER α ([1]; in the presence of modulators)
SSWDMHQFFWEGVSR [α/β III]	binds to ERα only in the presence of 4-OH-tamoxifen	–	–
SSLTSRDFGSWYASR [α II]	bind in the presence of estradiol and 4-OH-tamoxifen, but not in their absence	blocks tamoxifen partial agonist activity from all promoters tested	binds to ER α in the presence of any compound that binds to the estrogen receptor
